T1: recombinant human heparanase (active, 8 and 50 kDa sub-units, from baculovirus-infected Hi5 cells) (human, UniProt Q9Y251 36-109; Q9Y251 158-543)
T1 sequence (looked up) 1: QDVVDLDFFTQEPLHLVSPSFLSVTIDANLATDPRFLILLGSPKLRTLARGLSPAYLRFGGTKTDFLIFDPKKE
T1 sequence (looked up) 2: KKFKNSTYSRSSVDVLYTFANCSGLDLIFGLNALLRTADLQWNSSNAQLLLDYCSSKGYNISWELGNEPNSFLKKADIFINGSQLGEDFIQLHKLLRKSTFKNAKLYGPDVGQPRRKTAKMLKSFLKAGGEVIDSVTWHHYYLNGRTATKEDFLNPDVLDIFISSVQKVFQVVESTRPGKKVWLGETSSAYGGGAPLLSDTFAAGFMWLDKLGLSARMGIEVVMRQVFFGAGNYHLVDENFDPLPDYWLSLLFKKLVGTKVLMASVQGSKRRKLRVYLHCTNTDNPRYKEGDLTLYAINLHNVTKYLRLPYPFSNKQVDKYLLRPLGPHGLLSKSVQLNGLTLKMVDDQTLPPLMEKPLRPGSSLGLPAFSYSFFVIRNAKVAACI

T2: cynomolgus heparanase (cynomolgus, UniProt A0A2K5UQU0 87-593)
T2 construct: also called recombinant cynomolgus heparanase
T2 sequence: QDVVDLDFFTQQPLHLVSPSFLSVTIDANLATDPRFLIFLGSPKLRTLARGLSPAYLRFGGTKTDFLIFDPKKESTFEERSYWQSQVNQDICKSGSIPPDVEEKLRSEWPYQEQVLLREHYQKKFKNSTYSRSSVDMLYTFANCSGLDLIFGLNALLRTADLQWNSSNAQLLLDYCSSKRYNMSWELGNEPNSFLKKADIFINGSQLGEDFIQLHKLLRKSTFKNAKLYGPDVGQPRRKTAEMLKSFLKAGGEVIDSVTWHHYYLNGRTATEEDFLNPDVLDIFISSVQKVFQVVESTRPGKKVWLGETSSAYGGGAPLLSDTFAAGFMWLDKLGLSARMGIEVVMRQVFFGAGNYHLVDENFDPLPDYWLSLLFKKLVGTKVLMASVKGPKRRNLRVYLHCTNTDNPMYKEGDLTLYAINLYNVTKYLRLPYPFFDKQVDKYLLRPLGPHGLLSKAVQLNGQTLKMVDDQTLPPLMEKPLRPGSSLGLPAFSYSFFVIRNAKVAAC

T3: murine heparanase (murine, UniProt Q6YGZ1 28-535, limits assumed)
T3 construct: also called Mouse; recombinant murine heparanase
T3 sequence (looked up): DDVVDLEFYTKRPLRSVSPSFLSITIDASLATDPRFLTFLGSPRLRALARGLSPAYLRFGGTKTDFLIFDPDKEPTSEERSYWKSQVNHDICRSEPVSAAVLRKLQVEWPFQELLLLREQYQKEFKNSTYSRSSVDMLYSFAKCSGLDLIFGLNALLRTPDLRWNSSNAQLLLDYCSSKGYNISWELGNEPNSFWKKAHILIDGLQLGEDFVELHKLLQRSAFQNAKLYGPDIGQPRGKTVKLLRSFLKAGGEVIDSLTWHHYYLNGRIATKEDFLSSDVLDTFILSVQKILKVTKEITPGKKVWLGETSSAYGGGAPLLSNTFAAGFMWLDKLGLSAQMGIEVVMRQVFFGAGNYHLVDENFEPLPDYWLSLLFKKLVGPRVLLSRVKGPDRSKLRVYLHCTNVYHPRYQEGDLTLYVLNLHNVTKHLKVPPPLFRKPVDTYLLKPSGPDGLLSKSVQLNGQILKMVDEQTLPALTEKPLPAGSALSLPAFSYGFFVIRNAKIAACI

T4: human heparanase as used in the cross species capture ELISA (human, UniProt Q9Y251 36-543, limits assumed)
T4 construct: Captured on plates by a rabbit anti-heparanase antibody
T4 sequence (looked up): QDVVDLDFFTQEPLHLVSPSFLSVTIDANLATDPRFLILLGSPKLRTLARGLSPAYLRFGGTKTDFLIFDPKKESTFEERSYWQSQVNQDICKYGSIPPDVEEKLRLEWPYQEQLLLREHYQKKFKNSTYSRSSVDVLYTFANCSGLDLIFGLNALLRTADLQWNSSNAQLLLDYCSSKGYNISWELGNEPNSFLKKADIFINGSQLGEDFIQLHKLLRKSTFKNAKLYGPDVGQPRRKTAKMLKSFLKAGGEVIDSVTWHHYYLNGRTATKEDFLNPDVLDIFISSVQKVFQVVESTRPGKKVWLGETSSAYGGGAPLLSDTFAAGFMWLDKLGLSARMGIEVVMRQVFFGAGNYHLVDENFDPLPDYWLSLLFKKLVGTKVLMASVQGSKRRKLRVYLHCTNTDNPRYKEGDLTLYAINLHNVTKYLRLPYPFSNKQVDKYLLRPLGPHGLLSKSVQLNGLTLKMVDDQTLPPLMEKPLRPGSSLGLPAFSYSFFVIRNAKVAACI


Legend:
[1] = biological target: T1, recombinant human heparanase (active, 8 …); experiment: cell-based or functional assay
[2] = biological target: T1, recombinant human heparanase (active, 8 …); experiment: ELISA, hybridoma supernatant on directly coated recombinant human heparanase
cynomolgus heparanase = biological target: T2, cynomolgus heparanase; experiment: cross species capture ELISA, heparanase captured by rabbit anti-heparanase antibody, exhaustive supernatant 1:5, anti-human IgG Fc detection
Procedure: (§1) Initially, cross species binding to human, murine and cynomolgus heparanase was determined in an ELISA assay in which heparanase was captured onto plates using a rabbit anti-heparanase antibody (Raybiotech, Cat. IP-14-155). Exhaustive supernatants were added to the plates at a final dilution of 1:5 and bound antibody detected with a rabbit anti-human IgG Fc.

murine heparanase = biological target: T3, murine heparanase; experiment: as above
Procedure: as §1

[3] = biological target: T4, human heparanase as used in the cross …; experiment: as above
Procedure: as §1

[4] = biological target: T1, recombinant human heparanase (active, 8 …); experiment: medium resolution Biacore, antibody captured on goat anti-human antibody CM4 chip, recombinant Hpa1 at 1 nM and 10 nM, 25 C, 1:1 model with mass transport
Procedure: For medium resolution Biacore™ tests, cloned and purified antibodies were used. Each of three purified antibodies (10E9.1, 15A1.2, and 15A11.1) were captured onto a high-density goat anti-human antibody surface over a CM4 Biacore™ chip. Recombinant Hpa1 was diluted to the desired concentration (1 nM and 10 nM) in 10 mM HEPES, 150 mM NaCl, 0.005% tween-20, 0.1 mg per ml BSA pH7.4 (25° C.) immediately prior to injection. Data were fit globally to a 1:1 interaction model with a term for mass transport included. The resulting KD values are summarised below in Table 4.

Binder	Inhibition of recombinant human heparanase %, Assay 1 [1] [%]	Inhibition of recombinant human heparanase %, Assay 2 [1] [%]	OD, binding to direct coated heparanase [2] [OD units]	OD, binding to heparanase (Cyno) (cynomolgus heparanase) [OD units]	OD, binding to heparanase (Mouse) (murine heparanase) [OD units]	OD, binding to heparanase (Human) [3] [OD units]	Kd [4] [nM]	koff [4] [s⁻¹]	kon [4] [M⁻¹ s⁻¹]
monoclonal antibody 15A11.1 (antibody, V domains shown, Fully human (XenoMouse) antibody; also called ATCC PTA-9490) VH: QVQLVQSGAEVKKPGASVKVSCKVSGDTLTELSMHWVRQTPGKGLEWMGGFDPEDGETIYAQKFQGRVTMTGDTSTDTAYMELSSLRSEDTAVYYCATEGDYGDSEEYYYYYGMDVWGQGTTVTVSS VL: DIQMTQSPSSLSASVGDRVTITCRASQGISNYLAWYQQKPGKVPKLLIYAASTLQSGVPSRFSGSGSGTDFTLTISSLQPEDVATYYCQKYNRAPFTFGPGTKVDIK	75	87	0.07	0.14	0.17	0.21	0.056	0.000309	3.6e+06
monoclonal antibody 10E9.1 (antibody, V domains shown, Fully human (XenoMouse) antibody; also called mAb 10E9.1; ATCC PTA-9489) VH: QVQLVQSGAEVKKPGASVKVSCKVSGYSLTELSIHWVRQAPGKGLEWMGGFDPEDGEIIFAQKFQGRVTLTEDISLDTAYMEVSSLRSEDTAVYYCATEGHDSGDYVGYYYYGLDVWGQGTTVTVSS VL: DIQMTQSPSSLSASVGDRVTITCRASQDIRNFLAWYQQKPGKLPKLLIYAASTLQSGVPSRFSGSGSGTDFTLTISSLQPEDVASYYCQSHNSVPFTFGPGTKVDIR	88	99	0.2	1.4	0.49	0.63	0.0545	0.000112	2.06e+06
monoclonal antibody 7B9.1 (antibody, V domains shown, Fully human (XenoMouse) antibody) VH: QVQLVESGGGVVQPGRSLRLSCAASGFTFSSYGMHWVRQAPGKGLEWVAVIWYDGSNKYYADSVKGRFTISRDNSKNTLYLQMNSLRAEDTAVYYCAREGAPYSSSDAFDIWGQGTMVTVSS VL: QSVLTQPPSVSGAPGQRVTISCTGSSSNIGANYDVHWYQQLPGTAPKLLIYGDNNRPSGVPDRFSGSKSGTSASLAITGLQAEDEADYYCQSYDSSLSGSVFGGGTKLTVL	63	54	3.78	1.06	0.58	0.68			
monoclonal antibody 14H12.3 (antibody, V domains shown, Fully human (XenoMouse) antibody) VH: QVQLVESGGGVVQPGRSLRLSCAASGFTFSSYGMHWVRQAPGKGLEWVAVIWYDGSNKDYADSVKGRFTISRDNSKNTLYLQMNSLRAEDTAVYYCAREGSTSWTDYYGMDVWGQGTTVTVSS VL: SYELTQPPSVSVSPGQTARITCSGDALPKRYAYWYQQKSGQALVLVIYEDSKRPSGIPERFSGSSSGTMATLTISGAQVEDEADYYCYSIDSSGNHGVFGGGTKLTVL	58	85	3.69	0.95	0.14	0.61			
monoclonal antibody 15A1.2 (antibody, V domains shown, Fully human (XenoMouse) antibody; also called ATCC PTA-9491) VH: QVQLVQSGAEVKKPGASVKVSCKVSGYTLTELSMHWVRQAPGKGLEWMGGFDPEDGETIFAQKFQGRVTMTEDTSTDTAYMELSSLRSEDTAVYYCATGLRFLEWFLWGWDVWGQGTTVTVSS VL: DIQMTQSPSSVSASVGDRVTITCRASQGISNWLAWYQQTPGKAPQLLIYGASSLQSGVPSRFSGSGSGTDFTLTISSLQPEDFATYYCQQADSFPPTFGQGTKVEIK	81	91	0.08		0.14	0.19	0.056	0.000105	1.88e+06

Second part, the binder after the results:

Inhibition of recombinant human heparanase %, Assay 1 [1] [%]	Inhibition of recombinant human heparanase %, Assay 2 [1] [%]	OD, binding to direct coated heparanase [2] [OD units]	OD, binding to heparanase (Cyno) (cynomolgus heparanase) [OD units]	OD, binding to heparanase (Mouse) (murine heparanase) [OD units]	OD, binding to heparanase (Human) [3] [OD units]	Kd [4] [nM]	koff [4] [s⁻¹]	kon [4] [M⁻¹ s⁻¹]	Binder
44	53	3.63	1.64	0.61	1.84				monoclonal antibody 16G1.1 (antibody, V domains shown, Fully human (XenoMouse) antibody) VH: QVQLVESGGGVVQPGRSLRLSCAASGFTFSSYGMHWVRQAPGKGLEWVAVIWYDGSNKYYADSVKGRFTISRDNSKNTLNLQMNSLRAEDTAVYYCGRDPGTYHYYYHGMDVWGQGTTVTVSS VL: YIVMTQSPLSLPVTPGEPASISCRSSQSLLHSNGYNFLDWYLQKPGQSPQLLIYLGSNRASGVPDRFSGSGSGTDFTLKINRVEAEDVGVYYCMQALQTPITFGQGTRLEIK
40	51	0.15	1.66	0.63	1.08				monoclonal antibody 16E1.1 (antibody, V domains shown, Fully human (XenoMouse) antibody) VH: QVQLQESGPGLVKPSQTLSLTCTVSGGSISSGGYYWSWIRQHPGKGLEWIGFIYYSGSTFYNPSLKSRITISVDTSKNQFSLKLSSVTAADTAVYYCARPYSSSWYGAFDIWGQGTMVTVSS VL: SYELTQPPSVSVSPGRTASITCSEDKLGNKYAYWYQQKPGQSPVLVIYQDSERPSGIPERFSGSNSGNTATLTISGTQAMDEADYYCQAWDSSTVVFGGGTKLTVL

Source: patent US20100233154A1 (AstraZeneca / MedImmune, published 2010)
